Our source for the Kd values is PMC12288454, “Functional consequences of genetic variations in DgoR, a GntR/FadR family transcriptional repressor of D-galactonate metabolism in Escherichia coli” (Journal of Bacteriology, 2025).

In one series the target is T1, DgoR A152E (Escherichia coli BW, UniProt P31460 1-229, A152E).
T1 sequence: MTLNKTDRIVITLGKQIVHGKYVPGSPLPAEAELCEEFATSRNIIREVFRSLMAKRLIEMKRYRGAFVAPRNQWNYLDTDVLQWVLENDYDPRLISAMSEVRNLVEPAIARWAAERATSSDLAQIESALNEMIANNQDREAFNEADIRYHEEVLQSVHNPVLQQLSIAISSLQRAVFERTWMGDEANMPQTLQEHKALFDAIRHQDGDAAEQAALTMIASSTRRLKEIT
Kind of series: EMSA; no effector; apparent Kd, Hill fit; 10 nM DNA, 50 mM Tris pH 8.5, 10 mM MgCl2, 265 mM NaCl, 1 mM PMSF, 12% glycerol, 2 mM DTT, 1 ug herring sperm DNA per 20 uL, 27 C 30 min; effector pre-incubation 37 C 20 min; 8% native PAGE 0.5x TBE. Particulars: protein: recombinant; tags: C-terminal 6xHis; chain copies: 2; label: 5'-Cy5 on strand 1; blunt.

The target of a further series is T2, DgoR R71C (Escherichia coli BW, UniProt P31460 1-229, R71C).
T2 sequence: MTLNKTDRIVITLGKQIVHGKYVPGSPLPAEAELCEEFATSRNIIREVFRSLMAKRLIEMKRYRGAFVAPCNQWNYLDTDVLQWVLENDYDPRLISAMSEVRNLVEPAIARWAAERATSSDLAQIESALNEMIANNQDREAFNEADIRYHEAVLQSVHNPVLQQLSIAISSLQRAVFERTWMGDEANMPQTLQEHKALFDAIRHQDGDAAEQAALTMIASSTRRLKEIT
Described as above. Particulars: protein: recombinant; tags: C-terminal 6xHis; chain copies: 2; label: 5'-Cy5 on strand 1; blunt.

B1: dgo promoter probe GA149/GA150 (dsDNA)
DNA 1: GTGATCTAAATTGTAGTACAACAATATAAGTTTGTACTACATTACACGCACG
DNA 2: CGTGCGTGTAATGTAGTACAAACTTATATTGTTGTACTACAATTTAGATCAC
In the case of B1, the Kd came to 1940 ± 90 nM with DgoR A152E and 570 ± 16 nM in the series with DgoR R71C.
